Km, kcat and kcat/Km data for three substances are collected here from article PMC3646955.

Broadly, the Km is the concentration of substrate that gives half-maximal velocity. For orientation: kcat means the number of substrate molecules converted per active site and unit of time at saturation. A word on the kcat/Km: it is the turnover number divided by the Michaelis constant.

Common to all, as to experiment: purified protein
Holding throughout (type): biochemical, Serratia marcescens

Data set [1] concerns CCN[C@@H]1C[C@H](N)[C@@H](O[C@H]2OC(CN)=CC[C@H]2N)[C@H](O)[C@H]1O[C@H]1OC[C@](C)(O)[C@H](NC)[C@H]1O. As to conditions: 500 μM acetyl-CoA.
The subject of data set [2] is CN[C@@H]1[C@@H](O)[C@@H](O[C@@H]2[C@@H](O)[C@H](O[C@H]3OC(CN)=CC[C@H]3N)[C@@H](N)C[C@H]2N)OC[C@]1(C)O. The following applies: 500 μM acetyl-CoA.
Data set [3] concerns NCC[C@H](O)C(=O)N[C@@H]1C[C@H](N)[C@@H](O[C@H]2O[C@H](CN)[C@@H](O)[C@H](O)[C@H]2O)[C@H](O)[C@H]1O[C@H]1O[C@H](CO)[C@@H](O)[C@H](N)[C@H]1O. The following applies: 500 μM acetyl-CoA, 50 mM HEPES pH 7.5, AAC(6′) domain.
Data set [4] concerns NC[C@H]1O[C@H](O[C@H]2[C@H](O)[C@@H](O[C@H]3O[C@H](CO)[C@@H](O)[C@H](N)[C@H]3O)[C@H](N)C[C@@H]2N)[C@H](N)C[C@@H]1O. As to conditions: 500 μM acetyl-CoA.
Data set [5] deals with CN[C@@H]1[C@H](O)[C@H](NC)[C@H]2O[C@@]3(O)C(=O)C[C@@H](C)O[C@H]3O[C@@H]2[C@H]1O. The following applies: 200 μM ATP, 50 mM Tris-HCl pH 7.5, 10 mM MgCl2, 50 mM KCl, 25 °C.
For data set [6], the system named is Nc1ccn([C@@H]2O[C@H](COP(=O)(O)OP(=O)(O)OP(=O)(O)O)[C@@H](O)[C@H]2O)c(=O)n1. The following applies: 750 μM SPT, 50 mM Tris-HCl pH 7.5, 10 mM MgCl2, 50 mM KCl, 25 °C.
Data set [7] relates to O=P(O)(O)OP(=O)(O)OP(=O)(O)OC[C@H]1O[C@@H](n2cnc3c(O)ncnc32)[C@H](O)[C@@H]1O. As to conditions: 750 μM SPT, 50 mM Tris-HCl pH 7.5, 10 mM MgCl2, 50 mM KCl, 25 °C.
The test system of data set [8] is O=c1ccn([C@@H]2O[C@H](COP(=O)(O)OP(=O)(O)OP(=O)(O)O)[C@@H](O)[C@H]2O)c(=O)[nH]1. As to conditions: 750 μM SPT, 50 mM Tris-HCl pH 7.5, 10 mM MgCl2, 50 mM KCl, 25 °C.
Data set [9] deals with NC[C@@H]1O[C@H](O[C@H]2[C@@H](O)[C@H](O[C@@H]3[C@@H](O)[C@H](N)C[C@H](N)[C@H]3O[C@H]3O[C@H](CN)[C@@H](O)[C@H](O)[C@H]3N)O[C@@H]2CO)[C@H](N)[C@@H](O)[C@@H]1O. As to conditions: 500 μM acetyl-CoA, 50 mM HEPES pH 7.5.
Data set [10] deals with NC[C@H]1O[C@H](O[C@H]2[C@H](O[C@@H]3O[C@H](CO)[C@@H](O)[C@H]3O)[C@@H](O)[C@H](N)C[C@@H]2N)[C@H](N)[C@@H](O)[C@@H]1O. The following applies: 500 μM acetyl-CoA, 50 mM HEPES pH 7.5.
Setting [11] is: 50 mM HEPES pH 7.5, AAC(6′) domain.

Consider “NHis10-tagged ANT(3″)-Ii/AAC(6′)-IId (Serratia marcescens)”, for which the Km amounted to 1.77 ± 0.41 µM in data set [1] (setting [11]), 2.20 ± 0.60 µM in data set [2] (setting [11]), 0.556 ± 0.130 µM in data set [3] and 7.92 ± 0.53 µM in data set [4] (setting [11]). The kcat in data set [1] (setting [11]) came to 1.91 ± 0.08 s⁻¹; in [2] (setting [11]), 2.93 ± 0.16 s⁻¹; in data set [3], 2.92 ± 0.1 s⁻¹; in data set [4] (setting [11]) it was 3.84 ± 0.07 s⁻¹. In addition, the kcat/Km in [1] (setting [11]) came out at 1.08e+06 ± 250000 M⁻¹ s⁻¹; in data set [2] (setting [11]) it was 1.33e+06 ± 370000 M⁻¹ s⁻¹; in data set [3], 5.25e+06 ± 1.25e+06 M⁻¹ s⁻¹; in data set [4] (setting [11]) it was 485000 ± 34000 M⁻¹ s⁻¹.

As for “CHis6-tagged ANT(3″)-Ii(1-266) (Serratia marcescens)”, the Km in data set [5] worked out at 0.123 ± 0.015 µM; in data set [6] it was 33.3 ± 5.6 µM; in data set [7] it was 12.6 ± 1.5 µM; in data set [8], 26.2 ± 5.7 µM. The kcat in data set [5] is 5.13 ± 0.11 s⁻¹; in data set [6] it was 0.709 ± 0.04 s⁻¹; in [7], 0.481 ± 0.013 s⁻¹; in [8], 0.603 ± 0.047 s⁻¹. Further, the kcat/Km in data set [5] was found to be 4.15e+07 ± 5.1e+06 M⁻¹ s⁻¹; in data set [6] it was 21300 ± 3800 M⁻¹ s⁻¹; in data set [7], 38100 ± 4500 M⁻¹ s⁻¹; in data set [8] it was 23000 ± 5300 M⁻¹ s⁻¹.

With “NHis6-tagged AAC(6′)-IId(267-463) (Serratia marcescens)”, the Km in data set [1] (50 mM HEPES pH 7.5) stood at 3.87 ± 0.90 µM; in data set [2] (50 mM HEPES pH 7.5), 4.92 ± 1.14 µM; in data set [9], 32.1 ± 11.1 µM; in data set [4] (50 mM HEPES pH 7.5) it was 14.8 ± 3.4 µM; in [10], 69.3 ± 4.5 µM. Also, the kcat in data set [1] (50 mM HEPES pH 7.5) amounted to 3.21 ± 0.2 s⁻¹; in [2] (50 mM HEPES pH 7.5) it was 5.35 ± 0.27 s⁻¹; in data set [9], 11.1 ± 1 s⁻¹; in [4] (50 mM HEPES pH 7.5), 3.73 ± 0.25 s⁻¹; in data set [10], 5.7 ± 0.12 s⁻¹. For the same substance, the kcat/Km in data set [1] (50 mM HEPES pH 7.5) is 829000 ± 200000 M⁻¹ s⁻¹; in data set [2] (50 mM HEPES pH 7.5), 1.09e+06 ± 260000 M⁻¹ s⁻¹; in data set [9] it was 346000 ± 124000 M⁻¹ s⁻¹; in [4] (50 mM HEPES pH 7.5), 252000 ± 60000 M⁻¹ s⁻¹; in data set [10] it was 82200 ± 5600 M⁻¹ s⁻¹.
